According to article PMC3998888:

Molecular target: ALG-1(anti) (C. elegans (endogenous in whole animals))
Assay: co-IP; ALG-1 immunoprecipitated with a custom ALG-1-specific polyclonal antibody (Anaspec) from whole protein lysate of wild type or alg-1(anti) animals; precipitate probed by Western blot with anti-ALG-1, anti-DCR-1 and anti-AIN-1; signals quantified as ratios to ALG-1 and normalised to wild type

A fold decrease in co-precipitated AIN-1 against wild type ALG-1 of 3 fold and a fold decrease in co-precipitated AIN-1 against wild type ALG-1 (average of biological replicates) of 2 fold were found for AIN-1 (GW182) (natural protein) in this work.

A fold increase in co-precipitated DCR-1 against wild type ALG-1 of 4 fold was found for “DCR-1 (Dicer) (from UniProt P34529 1-1910) (enzyme)” in this work.
